According to paper PMC9056652:
Substitutions are numbered along the chain they refer to.

T1: wt-Obe (tag-free obelin) (UniProt Q27709 1-195)
T1 sequence: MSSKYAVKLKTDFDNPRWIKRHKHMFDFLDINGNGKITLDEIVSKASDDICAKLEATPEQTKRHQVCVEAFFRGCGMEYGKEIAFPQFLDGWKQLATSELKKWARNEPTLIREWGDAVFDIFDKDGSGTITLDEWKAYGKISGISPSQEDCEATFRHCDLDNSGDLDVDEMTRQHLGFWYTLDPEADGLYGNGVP

B1: O35 (structured_RNA)
RNA: GGGAGACAAGAAUAAACGCUCAAUAGGGUACGCGGACAGCGAUGGGACCGCGUUGCCAGCCCCUUCGACAGGAGGCUCACAACAGGC
modifications: 2'-F on all C and U
B2: O4t (structured_RNA)
RNA: GGGAGACAAGAAUAAACGCUCAACUAGGCUGUGCGCGGUGCCCUAUCUUAUCCGCGCCUCUCCU
modifications: 2'-F on all C and U
B3: O79t (structured_RNA)
RNA: GGGAGACAAGAAUAAACGCUCAAUGUGAAGUCGCAUUUAAUUGCUGGCGCCGUUUACUUGCUC
modifications: 2'-F on all C and U
B4: O3t (structured_RNA)
RNA: B3 RNA with U36C, A40G, C50U
modifications: 2'-F on all C and U
B5: O79 (structured_RNA)
RNA: GGGAGACAAGAAUAAACGCUCAAUGUGAAGUCGCAUUUAAUUGCUGGCGCCGUUUACUUGCUCUUCGACAGGAGGCUCACAACAGGC
modifications: 2'-F on all C and U
B6: O5 (structured_RNA)
RNA: GGGAGACAAGAAUAAACGCUCAAGUUGUACGCGGUUGGCAAUCCGCGUUGCUUUACGGGUUCCUUCGACAGGAGGCUCACAACAGGC
modifications: 2'-F on all C and U
B7: O6t (structured_RNA)
RNA: GGGAGACAAGAAUAAACGCUCAAGACGUGCGCGGGAAAGACCGACGCUCUACCCCUACAAGCU
modifications: 2'-F on all C and U

What was measured:
wt-Obe (tag-free obelin) [1] = target: T1, wt-Obe (tag-free obelin); assay: DRaCALA
wt-Obe (tag-free obelin) [2] = target: T1, wt-Obe (tag-free obelin); assay: solid-phase bioluminescent assay

| Binder | binding result (wt-Obe (tag-free obelin) [1]) | Kd (wt-Obe (tag-free obelin) [1]) [nM] | other results |
| --- | --- | --- | --- |
| B1 | no binding | – | – |
| B2 | no binding | – | – |
| B3 | – | 720 | – |
| B4 | – | 1370 | – |
| B5 | – | 690 | – |
| B6 | – | – | binding result (wt-Obe (tag-free obelin) [2]): binds |
| B7 | no binding | – | – |
